Source: patent publication US10344301, “Mutants of the bacteriophage lambda integrase” (AGENCY FOR SCIENCE, TECHNOLOGY AND RESEARCH)

Target: T1, C3-HIS integrase (E. coli minicircle) (Bacteriophage lambda, UniProt P03700 SEQ:1-356)
T1 chain: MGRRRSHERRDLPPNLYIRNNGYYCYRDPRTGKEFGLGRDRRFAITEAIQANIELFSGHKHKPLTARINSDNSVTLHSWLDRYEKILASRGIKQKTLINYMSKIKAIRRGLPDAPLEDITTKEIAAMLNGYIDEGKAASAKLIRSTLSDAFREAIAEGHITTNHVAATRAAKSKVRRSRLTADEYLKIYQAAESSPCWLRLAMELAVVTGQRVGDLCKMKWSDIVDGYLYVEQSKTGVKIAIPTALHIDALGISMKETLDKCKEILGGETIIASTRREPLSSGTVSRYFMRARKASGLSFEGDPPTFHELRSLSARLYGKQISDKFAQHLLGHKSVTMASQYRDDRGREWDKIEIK
Assay: cell_activity; E. coli TG1 chromosomal attB integration; 27 colonies, ~90% correct
Conditions: tags: His tag
Source text: The present example follows the methodology depicted in FIG. 2. C3INT-HIS-PET22b(+) was amplified with petF2 (SEQ ID NO: 10) and petR (SEQ ID NO: 11) and the PCR product subsequently intramolecularly ligated to produce a C3INT-HIS minicircle. attP-PET22b(+) was amplified with attP-F (SEQ ID NO: 12) and attPSOE-R (SEQ ID NO: 13) while PET22b(+) was amplified with TEM1prom-F (SEQ ID NO: 14) and TEM1promR (SEQ ID NO: 15) which produced PCR products encoding attP and ampicillin-resistant gene respectively. Splice overlap extension PCR (SOE-PCR) was carried out with these two PCR products using attP-F (SEQ ID NO: 12) and TEM1prom-R (SEQ ID NO: 15). The PCR product was subsequently intramolecularly ligated to produce attP-TEM1 minicircle. 100 ng of C3INT-HIS minicircle and 100 ng attP-TEM1 minicircle were combined and electroporated to 25 μL electrocompetent TG1 cells. The cells were allowed to recover for 1 hr before being plated on varying concentrations of ampicillin-LB agar plates (0.01 mg/mL, 0.02 mg/mL, 0.05 mg/mL, 0.07 mg/mL and 0.1 mg/mL). Incubation was carried out at 37° C. for 12-14 hrs to allow for expression of C3 integrase and chromosomal integration of the ampicillin-resistance cassette by C3 integrase. […]

B1: attB ; attP (dsDNA ; dsDNA)
DNA 1: CTGCTTTTTTATACTAACTTG
DNA 2: CAAGTTAGTATAAAAAAGCAG
DNA 3: CAGCTTTTTTATACTAAGTTG
DNA 4: CAACTTAGTATAAAAAAGCTG
- binding signal: ~12 fold vs Int-h/218
